The target in this experiment is T1, CLDN18.2 (UniProt P56856 1-261).
T1 chain: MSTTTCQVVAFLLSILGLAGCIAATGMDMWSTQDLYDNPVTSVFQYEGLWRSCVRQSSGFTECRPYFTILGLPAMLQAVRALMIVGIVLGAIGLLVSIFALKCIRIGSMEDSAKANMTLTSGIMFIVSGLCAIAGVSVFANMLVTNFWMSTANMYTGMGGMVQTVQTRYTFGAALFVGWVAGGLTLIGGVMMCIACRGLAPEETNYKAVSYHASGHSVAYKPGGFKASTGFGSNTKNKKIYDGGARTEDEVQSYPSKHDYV
Put plainly: FACS binding, MC38/CD47/CLDN18.2 cells. For orientation: A flow cytometer gives signals particle by particle.

B1: hu28 (antibody, V domains shown)
VH: QVQLVQSGAEVKKPGASVKVSCKASGYTFTNWVHWVRQAPGQGLEWMGEINPTNARSNYNEKFKKRVTMTRDTSTSTVYMELSSLRSEDTAVYYCARIYYGNSFAHWGQGTLVTVSS
VL: DIVMTQSPDSLAVSLGERATINCKSSQSLLNAGNQKNYLTWYQQKPGQPPKLLIYWSSTRESGVPDRFSGSGSGTDFTLTISSLQAEDVAVYHCQNNYYYPLTFGGGTKLEIKR
On to B1, for which the EC50 (usually the midpoint of the concentration-response curve) worked out at 3.24 nM. In other words, the single-digit nanomolar range.
